The test system of data set [1] is MGLL. Put plainly: Kinetic analysis: hydrolysis of Coumarin Arachidonate (C-A) by MGLL constructs. Format: biochemical, human. As to conditions: estimated; limited by solubility of C-A; read-out: apparent KM for C-A. From the text:
(§1) A small fluorescent substrate, 4-methyl coumarin butyrate (4MC-B) was used to compare the activity of the engineered mutants to the activity of wt-MGLL (hMGLL 1-303) (SEQ ID NO: 3). The catalytic efficiency (kcat/KM) for the hydrolysis of the 4MC-B was similar for wt-MGLL (hMGLL 1-303) (SEQ ID NO: 3) and all MGLL mutants tested (Table 2). A larger more aliphatic fluorescent substrate, Coumarin Arachidonate (C-A), structurally more closely related to the MGLL natural substrate, 2-AG, was used to compare the activity of wt-MGLL (hMGLL 1-303) (SEQ ID NO: 3) to TEV cleaved mut-MGLL (hMGLL 1-303 L169S, L176S) (SEQ ID NO: 5).
(§2) The Michaelis-Menten parameters for the hydrolysis of 4-methylcoumarin butyrate (4MC-B) and coumarin arachidonate (C-A) substrate were determined using 4-5 nM of MGLL in 20 mM Pipes pH 7 and 150 mM NaCl at 37° C. The change in fluorescence due to substrate hydrolysis was monitored using excitation/emission wavelengths of 335/440 in a Safire II instrument from Tecan. The hyperbolic rates versus substrate concentration curves for the hydrolysis of 4MC-B were fit to the Michaelis-Menten equation using Excel.
The apparent kcat/KM ratio for the hydrolysis of C-A was determined at [S]<<KM. […] The kcat/KM values reported are the average from independent values determined from five substrate concentrations ranging from 700 to 40 nM.

Data set [2] can be described thus: Size exclusion chromatography of MGLL purified in the absence of detergent (aggregation/monomer). Format: physicochemical. As to the method: A pilot purification of wt-MGLL (hMGLL 1-303) (SEQ ID NO: 3), performed in the complete absence of detergent, generated no protein (data not shown). A second purification of wt-MGLL (hMGLL 1-303) (SEQ ID NO: 3) was done with detergent in the lysis buffer only. Frozen cell pellets for wt-MGLL (hMGLL 1-303) (SEQ ID NO: 3) were thawed, resuspended, and lysed in Bugbuster® lysis buffer for 1 hour at 4° C. Bugbuster® lysis buffer is a proprietary lysis buffer from […] that contains detergent. The lysate was clarified by centrifugation at 40,000×g for 1 hr. No detergent was added at this point or during the rest of the purification. From this point forward, the purification protocol and buffers were the same as described below for mut-MGLL. An average of 2.2 mg of wt-MGLL (hMGLL 1-303) (SEQ ID NO: 3) per liter of cell culture was obtained.
Mutant MGLL (mut-MGLL) constructs were purified in the absence of detergent. Frozen cell pellets were thawed and resuspended in buffer A (50 mM Hepes buffer pH 7.5, 400 mM NaCl, 5% glycerol, 0.05% BME, 1× Complete EDTA-free protease inhibitor cocktail tablets (Roche)), dounce homogenized and mechanically lysed with a microfluidizer processor (Microfluidics). The extract was clarified by centrifugation at 40,000×g for 1 hr. The cleared lysate was loaded on a 1 ml His-Trap FF Crude column (GE-Healthcare) at 4° C. using the AktaXpress system. For larger preparations, a 5 ml His-Trap FF Crude column was used. The column was washed with 10-15 column volumes (CV) of buffer A containing 30 mM imidazole and mut-MGLL was eluted with 5 CV of 50 mM Hepes buffer pH 7.5, 400 mM NaCl, 5% glycerol, 0.05% BME, 400 mM imidazole. In most preparations, 30 mM imidazole was included in Buffer A from the beginning of the preparation to reduce non-specific binding on the His-Trap column. […] Fractions were analysed by SDS-PAGE. […] Purification yields were determined by Bradford assay using the protein assay kit from BioRad according to manufacturer's instruction with BSA as a standard (Bradford 1976).
For orientation: In gel filtration, larger molecules generally elute earlier.

In data set [3] the test system is MGLL. Put plainly: Kinetic analysis: hydrolysis of 4-methyl coumarin butyrate (4MC-B) by MGLL constructs. The data set is classed as biochemical, human. As to conditions: substrate 4MC-B; 4-5 nM MGLL, 20 mM Pipes pH 7, 150 mM NaCl, 37° C.; average of 2 or 4 separate assays.
Text: as §1, §2

Data set [4] in a line: Thermofluor thermal stability (melting transition) of MGLL. The data set is classed as physicochemical. As to conditions: for Tm (midpoint of the melting transition): 0.05 mg/ml protein, 1,8-ANS. From the text: The Thermofluor® assay is a powerful tool to screen for small molecule inhibitors interacting with a protein's active site or allosteric site. The assay detects small changes in the intrinsic melting temperature of proteins based on binding of ligands. Compounds that interact preferentially with the native form of the protein will increase the Tm, the temperature at which half of the protein is unfolded (Pantoliano et al. 2001). The technique monitors changes in the fluorescent intensity of dyes such as 1-anilinonaphthalene-8-sulfonic acid (1,8-ANS). The fluorescent dyes are quenched in aqueous environments but increase in fluorescence on binding to the hydrophobic core of denatured proteins.
Thermofluor® assays were conducted to characterize wt-MGLL (hMGLL 1-303) (SEQ ID NO: 3) and mut-MGLL (hMGLL 1-303 L169S, L176S) and evaluate if the MGLL mutants could be used for high-throughput screening using Thermofluor®. Three microliters of protein at a concentration of 0.05 mg/ml in 50 mM Pipes pH 7, 200 mM NaCl, 100 μM 1,8-ANS, and 0.001% Tween was added to pre-dispensed compound plates. Wells were overlaid with silicone oil (1 μL, Fluka, type DC 200) to prevent evaporation. Final compound concentrations varied from 150 to 0.15 μM. Assay plates were heated at a rate of 1° C./min for all experiments over a temperature range sufficient to measure protein unfolding. Fluorescence was measured by continuous illumination with UV light (Hamamatsu LC6) supplied via fiber optic and filtered through a custom band-pass filter (380-400 nm; >60D cutoff). Fluorescence emission was detected by measuring light intensity using a CCD camera (Sensys, Roper Scientific) filtered to detect emission at 500±25 nm, resulting in simultaneous and independent readings of all 384 wells. One or more images were collected at each temperature, and the sum of the pixel intensity in a given area of the assay plate was recorded vs temperature, and fit to standard equations to yield the Tm.
In general terms: In DSF a fluorescence change marks the thermal transition of the protein.

The nature of data set [5]: Circular dichroism structural analysis. Format: physicochemical. As to conditions: 5 μM protein, 10 mM cacodylic acid pH 7, 140 mM NaCl. How it is done:
Circular dichroism experiments were performed on a Circular Dichroism Spectrometer Model 202 from Aviv Instruments Inc. The CD scans of wt-MGLL (hMGLL 1-303) (SEQ ID NO: 3) and TEV cleaved mut-MGLL (hMGLL 1-303 L169S, L176S) (SEQ ID NO: 5) (5 μM protein in 10 mM cacodylic acid pH 7 and 140 mM NaCl) were measured from 200 to 260 nm. Temperature melts were monitored at 210 nm.
For orientation: Circular dichroism is widely used to follow secondary structure.

Where [6] appears, read: size exclusion, purified in the absence of detergent.

For orientation: Km means the substrate concentration at which the rate is half of its maximum. Consider `CCCCC/C=C/C/C=C\C/C=C/C/C=C/CCCC(=O)Oc1ccc2ccc(=O)oc2c1` [C-A, Coumarin Arachidonate], for which the Michaelis-Menten constant (Km) with MGLL [1] was greater than 30 µM.

B1: wt-MGLL.1-303: wild-type human MGLL isoform 2 amino acids 1-303 with N-terminal His tag and TEV site, SEQ ID NO: 3 (protein)
chain: MVDHHHHHHENLYFQGMPEESSPRRTPQSIPYQDLPHLVNADGQYLFCRYWKPTGTPKALIFVSHGAGEHSGRYEELARMLMGLDLLVFAHDHVGHGQSEGERMVVSDFHVFVRDVLQHVDSMQKDYPGLPVFLLGHSMGGAIAILTAAERPGHFAGMVLISPLVLANPESATTFKVLAAKVLNLVLPNLSLGPIDSSVLSRNKTEVDIYNSDPLICRAGLKVCFGIQLLNAVSRVERALPKLTVPFLLLQGSADRLCDSKGAYLLMELAKSQDKTLKIYEGAYHVLHKELPEVTNSVFHEINMWVSQRTATAGTASPP
modifications: N-terminal His tag and TEV site; Human
As to B1, the “aggregation by size exclusion chromatography (in words)” value in data set [2] (detergent in the lysis buffer only) is reported as “complete aggregation”. Also, the aggregation in data set [2] (setting [6]) is 100%. Besides, in the data set on MGLL [3], the Kcat stood at 1.13 s⁻¹ and the Km came to 162 µM. Besides, in data set [4], the “quality of the melting transition” value is reported as “very poor transition” and the “Tm (midpoint of the melting transition)” value stood at 58 °C.

B2: mut-MGLL. 1-303, L169S, L176S: engineered human MGLL 1-303 with cap-domain mutations L169S, L176S; SEQ ID NO: 4, SEQ ID NO: 5 after TEV cleavage (protein)
chain: MVDHHHHHHENLYFQGMPEESSPRRTPQSIPYQDLPHLVNADGQYLFCRYWKPTGTPKALIFVSHGAGEHSGRYEELARMLMGLDLLVFAHDHVGHGQSEGERMVVSDFHVFVRDVLQHVDSMQKDYPGLPVFLLGHSMGGAIAILTAAERPGHFAGMVLISPLVLANPESATTFKVLAAKVLNSVLPNLSSGPIDSSVLSRNKTEVDIYNSDPLICRAGLKVCFGIQLLNAVSRVERALPKLTVPFLLLQGSADRLCDSKGAYLLMELAKSQDKTLKIYEGAYHVLHKELPEVTNSVFHEINMWVSQRTATAGTASPP
modifications: His tag and TEV site; SEQ ID 5 after TEV cleavage; Human
In the case of B2, the monomer in data set [2] (setting [6]) was found to be 90%. For the same molecule, in the data set on MGLL [3], the Kcat is 0.8 s⁻¹ and the Km is 136 µM. Moreover, in data set [4], the “quality of the melting transition” value is given as “strong transition” and the “Tm (midpoint of the melting transition)” value was 56.7 °C. The “CD scans 200 to 260 nm compared with wt-MGLL purified in the presence of detergent” value in data set [5] is given as “similar”.
